This note sets out measurements from publication PMC6642535.

This test has as its target Flag-tagged wild-type GAPDH (human) (UniProt P04406). Nature of the test: native gel or EMSA; lysates of stable PANC-1 lines (GFP/wild-type GAPDH, GFP-PRMT3/wild-type GAPDH, GFP-PRMT3/R248K-GAPDH) on 10% native gel; tetrameric form.

Sequence of Flag-tagged wild-type GAPDH, P04406 1-335 (enzyme; other documents disagree on this pair) (P04406 whole entry): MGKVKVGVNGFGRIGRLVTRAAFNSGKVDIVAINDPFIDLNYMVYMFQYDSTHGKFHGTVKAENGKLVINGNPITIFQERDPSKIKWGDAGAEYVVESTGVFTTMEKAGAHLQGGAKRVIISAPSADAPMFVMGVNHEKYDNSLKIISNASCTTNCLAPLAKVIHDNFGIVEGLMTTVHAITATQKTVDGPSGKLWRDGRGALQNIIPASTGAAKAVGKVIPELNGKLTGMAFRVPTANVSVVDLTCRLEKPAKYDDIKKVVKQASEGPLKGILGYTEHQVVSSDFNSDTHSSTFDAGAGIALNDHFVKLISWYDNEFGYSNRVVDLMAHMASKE

On to “Flag-tagged wild-type GAPDH, P04406 1-335 (enzyme; other documents disagree on this pair)”, for which the stoichiometry N (commonly a count of units in the complex or per binding partner) was found to be 4.
